The values below come from article PMC3763469 (Molecular cell, 2011).

The target of experiment [1] is FlAsH-Saci_1373 (ESCRT-III wH domain, residues 194-261) (S. acidocaldarius) (UniProt Q4J924). As to the kind of experiment: fluorescence polarisation. A general note: In fluorescence polarisation assays a small probe gives low polarisation when free and higher when bound to something large.
The target in experiment [2] is T1, S. solfataricus ESCRT-III wH domain (His6-SSO0910, residues 210-259) (S. solfataricus, UniProt Q97ZJ6 210-259).
T1 chain (looked up): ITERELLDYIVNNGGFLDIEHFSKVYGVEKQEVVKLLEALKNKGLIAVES
As to the kind of experiment: crystal structure.

For experiment [3], the target named is T2, GST fused to full length ESCRT-III (Saci_1373) (S. acidocaldarius, UniProt Q4J924 1-261).
T2 sequence (looked up): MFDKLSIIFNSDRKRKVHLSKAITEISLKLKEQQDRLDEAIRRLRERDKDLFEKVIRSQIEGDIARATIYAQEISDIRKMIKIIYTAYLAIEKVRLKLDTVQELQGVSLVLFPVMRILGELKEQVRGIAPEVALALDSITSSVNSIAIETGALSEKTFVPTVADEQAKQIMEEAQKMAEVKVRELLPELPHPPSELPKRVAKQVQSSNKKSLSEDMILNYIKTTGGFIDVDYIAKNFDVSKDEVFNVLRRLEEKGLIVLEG
As to the kind of experiment: pull-down.

Experiment [4] concerns the target T3, full length ESCRT-III (Saci_1373), purified recombinant (S. acidocaldarius, UniProt Q4J924 1-261).
T3 sequence (looked up): T2 sequence (looked up)
In words: co-sedimentation.

“GST-tagged CdvA residues 208-238 (from UniProt Q4J923 208-238) (domain or fragment)”: the Kd in experiment [1] amounted to 6 µM.

B1: S. solfataricus CdvA E3B peptide (SSO0911, residues 251-265) (peptide, UniProt Q97ZJ5 251-265, looked up)
peptide: SEIPLPIPVKVINTL
As for B1, in experiment [2], the binding result is given as “binds”.

B2: CdvA (Saci_1374) residues 69-238 (domain or fragment, S. acidocaldarius, UniProt Q4J923 69-238, looked up)
chain: DWKTDSLKVLGQMEKIRKRQRALEELYSRQEIPKSTYEDMKRKLDSELLKIRDEHSRLKGRLKDRLNSIEDQVAQIDRAMIALKINYISGEIPELAYKNSMEILRLSRDSYALERDDIKKTLDKLDGLDKEVIELKPSASLNTSTEQSNKNEGNKSEVSVPIPVRVINTL
Regarding B2, the binding result in experiment [3] and in experiment [4] was “binds” throughout.

A word on the Kd: it is a measure of binding affinity in units of concentration. High values mean a looser complex, low ones a tighter complex.
